# Laboratory results published in patent US20250092426, “CAS ENDONUCLEASES AND RELATED METHODS” (Flagship Pioneering Innovations VII, LLC, published 2025).
# T1: CasEnd-6 (synthetic construct)
# T1 chain: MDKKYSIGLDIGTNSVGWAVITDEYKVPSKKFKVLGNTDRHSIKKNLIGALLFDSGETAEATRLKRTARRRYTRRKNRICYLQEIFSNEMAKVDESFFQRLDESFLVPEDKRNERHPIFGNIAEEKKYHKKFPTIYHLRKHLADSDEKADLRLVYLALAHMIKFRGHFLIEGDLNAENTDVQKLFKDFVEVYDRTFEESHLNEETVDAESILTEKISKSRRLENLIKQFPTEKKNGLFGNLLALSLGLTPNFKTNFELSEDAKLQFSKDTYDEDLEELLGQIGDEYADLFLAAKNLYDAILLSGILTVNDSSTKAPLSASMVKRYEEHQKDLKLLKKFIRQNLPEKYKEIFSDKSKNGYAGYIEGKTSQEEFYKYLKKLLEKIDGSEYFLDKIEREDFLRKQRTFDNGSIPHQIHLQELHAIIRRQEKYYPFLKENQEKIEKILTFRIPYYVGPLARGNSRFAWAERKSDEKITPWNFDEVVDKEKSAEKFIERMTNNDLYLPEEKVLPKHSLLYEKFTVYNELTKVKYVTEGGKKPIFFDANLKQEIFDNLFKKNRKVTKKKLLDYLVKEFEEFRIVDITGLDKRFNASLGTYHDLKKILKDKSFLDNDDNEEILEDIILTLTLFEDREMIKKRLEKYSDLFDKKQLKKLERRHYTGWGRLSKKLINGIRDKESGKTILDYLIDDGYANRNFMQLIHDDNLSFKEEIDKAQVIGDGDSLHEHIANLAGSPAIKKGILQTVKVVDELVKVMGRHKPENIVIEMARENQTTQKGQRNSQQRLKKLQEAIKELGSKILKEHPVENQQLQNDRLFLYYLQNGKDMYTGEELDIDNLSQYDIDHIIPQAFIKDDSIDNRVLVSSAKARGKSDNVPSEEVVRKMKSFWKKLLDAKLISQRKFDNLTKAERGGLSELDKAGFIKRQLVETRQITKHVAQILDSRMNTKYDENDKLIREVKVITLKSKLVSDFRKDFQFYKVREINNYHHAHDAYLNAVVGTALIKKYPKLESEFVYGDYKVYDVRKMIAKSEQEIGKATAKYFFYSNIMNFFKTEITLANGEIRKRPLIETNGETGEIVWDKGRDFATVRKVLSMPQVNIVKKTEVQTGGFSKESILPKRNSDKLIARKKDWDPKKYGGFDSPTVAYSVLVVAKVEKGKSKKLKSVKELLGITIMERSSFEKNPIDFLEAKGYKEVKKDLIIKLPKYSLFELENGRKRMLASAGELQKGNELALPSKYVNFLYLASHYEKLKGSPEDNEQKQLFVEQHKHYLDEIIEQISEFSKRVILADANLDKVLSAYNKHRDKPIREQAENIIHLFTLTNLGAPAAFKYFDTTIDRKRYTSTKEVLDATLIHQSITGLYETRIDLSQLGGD
# Target: T1, CasEnd-6
# Test: cell_activity; +++; HEK293T; PAM not stated
# Method in brief: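 Editing activity was scored as the fraction of GFP+ cells on day 4 by flow cytometry. BFP-expressing HEK293T cells (250,000) received by nucleofection 200 ng plasmid for the RT-Cas fusion protein and 200 ng template RNA plasmid designed to convert BFP to GFP.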
binder,measurement,value
BFP-to-GFP template RNA ; BFP reporter protospacer (ssRNA ; dsDNA) RNA: GCCGAAGCACUGCACGCCGUGUUUUAGAGCUAGAAAUAGCAAGUUAAAAUAAGGCUAGUCCGUUAUCAACUUGAAAAAGUGGCACCGAGUCGGUGCACCCUGACGUACGGCGUGCAGUGCUU DNA 1: GCCGAAGCACTGCACGCCGT DNA 2: ACGGCGTGCAGTGCTTCGGC,activity,≥ 100 % of reference
